Experimental data: patent publication US12351605B2, “Optically controllable FGFR stimulation using wireless controlled cellular lighting system” (THE JOHNS HOPKINS UNIVERSITY, priority 2020, dated 2025)
Where two headings read alike, the source gives them in different places.

How the values were obtained:
[1] = daily feeding condition, cited from earlier work
[2] = system: FGF signaling pathway; test: Western blot of ERK1/2 and MEK phosphorylation in Opto-FGFR hESCs; format: cell-based, human; conditions: 10 ng/mL FGF2 after 24 h FGF2 starvation; 15 min intervals up to 120 min
Procedure: Western blot analysis. The phosphorylation status of MEK and ERK1/2 were determined by Western blot analysis. The cells were starved from FGF2 protein for 24 h, and then exposed to either FGF2 protein or blue light illumination. One μg aliquots of whole cell lysates were loaded onto 4-20% gradient SDS-PAGE gels and then transferred to nitrocellulose membranes (Bio-Rad) using the Trans-Blot® Turbo™ Transfer System (Bio-Rad). The detection of phosphorylated ERK1/2 proteins (42 and 44 kDa) was performed using a phospho-ERK1/2 antibody (Cell Signaling), total ERK1/2 expression level was determined using a total […] antibody (Cell Signaling), detection of pMEK protein (45 kDa) was performed using a pMEK1/2 antibody (Cell Signaling), and total MEK expression level was determined using a total MEK1/2 antibody (Cell Signaling). The expression levels are quantified by normalizing to GAPDH expression (Cell Signaling). Following the primary antibody incubation, the membranes were incubated with the appropriate secondary antibodies and subsequently visualized with an ECL kit (Pierce).
Generation of a light-inducible FGF signaling system. […]

Question: For “FGF2: recombinant fibroblast growth factor 2 protein, medium component for maintaining pluripotency of PSCs”, which “decrease of FGF2 protein concentration” value ([1]; 4 h after the initial feeding) is on record?
Answer: The value was “approximately 40%”.

Question: And the “decrease of FGF2 protein concentration” value ([1]; 24 h after the initial feeding)?
Answer: Its value is “approximately 10%”.

Question: And the “activation of FGF signaling (phosphorylation of ERK1/2 and MEK)” value [2]?
Answer: Its value is “activated FGF signaling”.
